This passage reports Kd, koff and kon results from US20190225669A1.

Settings in all cases: remark: other sources report otherwise
One assay has as its target T1, BMP7, P18075.
T1 chain: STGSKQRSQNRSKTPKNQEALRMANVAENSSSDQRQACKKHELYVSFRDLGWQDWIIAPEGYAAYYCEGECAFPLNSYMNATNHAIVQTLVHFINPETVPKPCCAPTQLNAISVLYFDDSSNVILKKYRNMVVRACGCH
Description: Biacore SPR. For orientation: SPR reads the build-up and loss of mass on a sensor chip optically.

In assay [1] the target is GDF8, O14793. Nature of the assay: Biacore SPR; † very low signal.
The target in assay [2] is GDF8, O14793. Nature of the assay: Biacore SPR.

Chain of GDF8, O14793 (O14793 267-375 limits assumed): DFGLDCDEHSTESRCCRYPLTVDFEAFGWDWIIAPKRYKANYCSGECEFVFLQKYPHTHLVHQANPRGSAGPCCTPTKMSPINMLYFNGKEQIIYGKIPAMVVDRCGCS

B1: ALK3-Fc homodimer, P36894 24-152 (Fc fusion, UniProt P36894 24-152, looked up, not shown: a dimerising Fc or GST)
chain: QNLDSMLHGTGMKSDSDQKKSENGVTLAPEDTLPFLKCYCSGHCPDDAINNTCITNGHCFAIIEEDDQGETTLASGCMKYEGSDFQCKDSPKAQLRRTIECCRTNLCNQYLQPTLPPVVIGPFFDGSIR
The term Kd denotes the free concentration of one partner at which half of the binding sites on the other are occupied at equilibrium, for simple one-to-one binding. Low values mean a tighter complex, high ones a looser complex. In general, koff refers to the first-order rate constant of dissociation. A high value points to a short-lived complex. What is called kon is the rate constant with which the complex forms. Lower therefore signals slow association. In the assay with BMP7, P18075, B1 showed a Kd of 15 nM, a koff of 0.018 s⁻¹ and a kon of 1.2e+06 M⁻¹ s⁻¹.

B2: ALK4-Fc homodimer, P36896 24-126 (Fc fusion, UniProt P36896 24-126, looked up, not shown: a dimerising Fc or GST)
chain: SGPRGVQALLCACTSCLQANYTCETDGACMVSIFNLDGMEHHVRTCIPKVELVPAGKPFYCLSSEDLRNTHCCYTDYCNRIDLRVPSGHLKEPEHPSMWGPVE
Molecule B2 yielded an equilibrium dissociation constant (Kd) with GDF8, O14793 [1] of 15 nM. In addition, in the assay with GDF8, O14793 [2], the koff came to 0.0019 s⁻¹ and the on-rate constant (kon) came to 130000 M⁻¹ s⁻¹.
